Data published in patent publication US20230002496A1 (STAIDSON BEIJING BIOPHARMACEUTICALS, published 2023).
Where a chain is given by its changes, count along the chain named.

B1: E35-scFv LS31L (scFv, V domains shown)
VH: QMQLVQSGAEVKKPGASVKVSCKVSGYTLTELSIHWVRQAPGKGLEWMGGFDPEDGETIYAQKFQGRVTMTGDTSTDTAYLELSSLRSEDTALYYCATGRYTSLATTYGFDYWGQGTLVTVSS
VL: EIVMTQSPATLSLSPGERATLSCRASQSVSLYLAWYQQKPGQAPRLLIYGASSRATGIPDRFSGSGSGTDFTLTISRLEPEDFAVYYCQQYDNWPYTFGQGTKLEIK
B2: E35-scFv LS31G (scFv, V domains shown)
VH: B1 VH
VL: B1 VL with L31G
B3: E35-scFv LS28T (scFv, V domains shown)
VH: B1 VH
VL: B1 VL with S28T, L31S
B4: E35-scFv LS30E (scFv, V domains shown)
VH: B1 VH
VL: B1 VL with S30E, L31S
B5: E35-scFv LY32L (scFv, V domains shown)
VH: B1 VH
VL: B1 VL with L31S, Y32L
B6: E35-scFv LS30T (scFv, V domains shown)
VH: B1 VH
VL: B1 VL with S30T, L31S
B7: E35-scFv LS28V (scFv, V domains shown)
VH: B1 VH
VL: B1 VL with S28V, L31S
B8: E35-scFv LS30M (scFv, V domains shown)
VH: B1 VH
VL: B1 VL with S30M, L31S
B9: E35-scFv LS28W (scFv, V domains shown)
VH: B1 VH
VL: B1 VL with S28W, L31S
B10: E35-scFv LS31E (scFv, V domains shown)
VH: B1 VH
VL: B1 VL with L31E
B11: E35-scFv LS31I (scFv, V domains shown)
VH: B1 VH
VL: B1 VL with L31I
B12: E35-scFv LY32F (scFv, V domains shown)
VH: B1 VH
VL: B1 VL with L31S, Y32F
B13: E35-scFv LS30L (scFv, V domains shown)
VH: B1 VH
VL: B1 VL with S30L, L31S
B14: E35-scFv LS28K (scFv, V domains shown)
VH: B1 VH
VL: B1 VL with S28K, L31S
B15: E35-scFv LS28L (scFv, V domains shown)
VH: B1 VH
VL: B1 VL with S28L, L31S
B16: E35-scFv LY32Q (scFv, V domains shown)
VH: B1 VH
VL: B1 VL with L31S, Y32Q
B17: E35-scFv LS30V (scFv, V domains shown)
VH: B1 VH
VL: B1 VL with S30V, L31S
B18: E35-scFv LS30K (scFv, V domains shown)
VH: B1 VH
VL: B1 VL with S30K, L31S
B19: E35-scFv LS30R (scFv, V domains shown)
VH: B1 VH
VL: B1 VL with S30R, L31S
B20: E35-scFv LS28R (scFv, V domains shown)
VH: B1 VH
VL: B1 VL with S28R, L31S
B21: E35-scFv LS28F (scFv, V domains shown)
VH: B1 VH
VL: B1 VL with S28F, L31S
B22: E35-scFv LS28H (scFv, V domains shown)
VH: B1 VH
VL: B1 VL with S28H, L31S
B23: E35-scFv LS30G (scFv, V domains shown)
VH: B1 VH
VL: B1 VL with S30G, L31S
B24: E35-scFv LS30C (scFv, V domains shown)
VH: B1 VH
VL: B1 VL with S30C, L31S
B25: E35-scFv LS30W (scFv, V domains shown)
VH: B1 VH
VL: B1 VL with S30W, L31S
B26: E35-scFv LS28A (scFv, V domains shown)
VH: B1 VH
VL: B1 VL with S28A, L31S
B27: E35-scFv LS30A (scFv, V domains shown)
VH: B1 VH
VL: B1 VL with S30A, L31S
B28: E35-scFv LS31D (scFv, V domains shown)
VH: B1 VH
VL: B1 VL with L31D
B29: E35-scFv (scFv, V domains shown)
VH: B1 VH
VL: B1 VL with L31S
B30: E35-scFv LS30N (scFv, V domains shown)
VH: B1 VH
VL: B1 VL with S30N, L31S
B31: E35-scFv LY32M (scFv, V domains shown)
VH: B1 VH
VL: B1 VL with L31S, Y32M
B32: E35-scFv LS28Q (scFv, V domains shown)
VH: B1 VH
VL: B1 VL with S28Q, L31S
B33: E35-scFv LY32W (scFv, V domains shown)
VH: B1 VH
VL: B1 VL with L31S, Y32W
B34: E35-scFv LS30Y (scFv, V domains shown)
VH: B1 VH
VL: B1 VL with S30Y, L31S
B35: E35-scFv LS31W (scFv, V domains shown)
VH: B1 VH
VL: B1 VL with L31W
B36: E35-scFv LS28I (scFv, V domains shown)
VH: B1 VH
VL: B1 VL with S28I, L31S
B37: E35-scFv LS30F (scFv, V domains shown)
VH: B1 VH
VL: B1 VL with S30F, L31S
B38: E35-scFv LS28E (scFv, V domains shown)
VH: B1 VH
VL: B1 VL with S28E, L31S
B39: E35-scFv LS28P (scFv, V domains shown)
VH: B1 VH
VL: B1 VL with S28P, L31S
B40: E35-scFv LY32V (scFv, V domains shown)
VH: B1 VH
VL: B1 VL with L31S, Y32V
B41: E35-scFv LY32T (scFv, V domains shown)
VH: B1 VH
VL: B1 VL with L31S, Y32T

Target: T1, human GM-CSFRα, full length on cells (human, UniProt P15509 23-400)
T1 sequence: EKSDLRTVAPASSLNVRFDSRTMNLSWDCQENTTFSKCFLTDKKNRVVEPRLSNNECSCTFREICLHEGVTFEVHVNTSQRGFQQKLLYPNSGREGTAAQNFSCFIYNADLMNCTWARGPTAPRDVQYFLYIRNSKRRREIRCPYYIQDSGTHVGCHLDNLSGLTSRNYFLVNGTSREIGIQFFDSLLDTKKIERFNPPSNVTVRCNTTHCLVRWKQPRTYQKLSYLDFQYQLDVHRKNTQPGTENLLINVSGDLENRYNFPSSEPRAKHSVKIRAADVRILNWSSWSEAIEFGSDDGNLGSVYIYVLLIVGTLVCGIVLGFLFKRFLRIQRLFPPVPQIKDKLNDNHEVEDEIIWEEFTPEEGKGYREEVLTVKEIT
Experiment: cell-based or functional assay

Row | IC50, TF-1 cell proliferation | Binder
1 | 0.235 µg/mL | B1
2 | 0.279 µg/mL | B2
3 | 0.088 µg/mL | B3
4 | 0.1 µg/mL | B4
5 | 0.07 µg/mL | B5
6 | 0.092 µg/mL | B6
7 | 0.104 µg/mL | B7
8 | 0.073 µg/mL | B8
9 | 0.06 µg/mL | B9
10 | 0.832 µg/mL | B10
11 | 0.681 µg/mL | B11
12 | 0.21 µg/mL | B12
13 | 0.069 µg/mL | B13
14 | 0.082 µg/mL | B14
15 | 0.067 µg/mL | B15
16 | 0.87 µg/mL | B16
17 | 0.124 µg/mL | B17
18 | 0.083 µg/mL | B18
19 | 0.088 µg/mL | B19
20 | 0.077 µg/mL | B20
21 | 0.1 µg/mL | B21

Row | IC50, TF-1 cell proliferation | Binder
22 | 0.058 µg/mL | B22
23 | 0.092 µg/mL | B23
24 | 0.221 µg/mL | B24
25 | 0.071 µg/mL | B25
26 | 0.116 µg/mL | B26
27 | 0.078 µg/mL | B27
28 | 1.34 µg/mL | B28
29 | 0.12 µg/mL | B29
30 | 0.132 µg/mL | B30
31 | 0.42 µg/mL | B31
32 | 0.154 µg/mL | B32
33 | 1.17 µg/mL | B33
34 | 0.082 µg/mL | B34
35 | 0.649 µg/mL | B35
36 | 0.091 µg/mL | B36
37 | 0.16 µg/mL | B37
38 | 0.111 µg/mL | B38
39 | 0.089 µg/mL | B39
40 | 1.23 µg/mL | B40
41 | 0.51 µg/mL | B41
